Where two headings read alike, the source gives them in different places.

This passage reports EC50 results from US20230287081A1 (published 2023).

Common to all, as to assay: ELISA
Background: ELISA stands for enzyme-linked immunosorbent assay.

Experiment [1] deals with T1, hPD-L1-hIGg1Fc (SinoBiological) (human, UniProt Q9NZQ7 19-238).
Experiment [2] has as its target T1, hPD-L1-hIGg1Fc (SinoBiological). This is another data set of the same source.
For experiment [3] the target is unchanged. The source holds these as a separate data set.
For experiment [4] the target is unchanged. The source holds these as a separate data set.

T1 sequence (Q9NZQ7 19-238): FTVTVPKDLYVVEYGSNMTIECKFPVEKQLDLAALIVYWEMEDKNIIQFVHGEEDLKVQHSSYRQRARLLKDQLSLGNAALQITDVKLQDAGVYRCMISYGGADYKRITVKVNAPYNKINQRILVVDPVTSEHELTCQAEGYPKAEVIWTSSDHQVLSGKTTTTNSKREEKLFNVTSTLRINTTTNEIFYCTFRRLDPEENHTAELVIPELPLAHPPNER

B1: aPD-L1 (antibody, V domains shown)
VH: EVQLLESGGGLVQPGGSLSLSCAASGFSFSSGYDMCWVRQAPGKGLEWIACIAAGSAGITYDANWAKGRFTISRDNSKNTLYLQMNSLRAEDTAVYYCARSAFSFDYAMDLWGQGTLVTVSS
VL: DIQMTQSPSTLSASVGDRVTITCQASQSISSHLNWYQQKPGKAPKLLIYKASTLASGVPSRFSGSGSGTEFTLTISSLQPDDFATYYCQQGYSWGNVDNVFGGGTKVTVL
Turning to B1, the EC50 in experiment [1] and in experiment [2] was 68 pM each time.

B2: PD-1m-aGPC-3L (bispecific antibody)
heavy: QVQLVQSGAEVKKPGASVKVSCKASGYTFTDYEMHWVRQAPGQGLEWMGALDPKTGDTAYSQKFKGRVTLTADKSTSTAYMELSSLTSEDTAVYYCTRFYSYTYWGQGTLVTVSSASTKGPSVFPLAPSSKSTSGGTAALGCLVKDYFPEPVTVSWNSGALTSGVHTFPAVLQSSGLYSLSSVVTVPSSSLGTQTYICNVNHKPSNTKVDKKVEPKSCDKTHTCPPCPAPPVAGPSVFLFPPKPKDTLMISRTPEVTCVVVDVSHEDPEVKFNWYVDGVEVHNAKTKPREEQYNSTYRVVSVLTVLHQDWLNGKEYKCKVSNKGLPSSIEKTISKAKGQPREPQVYTLPPSRDELTKNQVSLTCLVKGFYPSDIAVEWESNGQPENNYKTTPPVLDSDGSFFLYSKLTVDKSRWQQGNVFSCSVMHEALHNHYTQKSLSLSPGK
light: LDSPDRPWNPPTFSPALLVVTEGDNATFTCSFSNTSESFVLNWYRMSPSNQTDKLAAFPEDRSQPGQDSRFRVTQLPNGRDFHMSVVRARRNDSGTYLCGAISLAPKVQIKESLRAELRVTERRAEVPTAHPSPSPRPAGQFQGGGGSGGGGSGGGGSGDVVMTQSPLSLPVTPGEPASISCRSSQSLVHSNRNTYLHWYLQKPGQSPQLLIYKVSNRFSGVPDRFSGSGSGTDFTLKISRVEAEDVGVYYCSQNTHVPPTFGQGTKLEIKRTVAAPSVFIFPPSDEQLKSGTASVVCLLNNFYPREAKVQWKVDNALQSGNSQESVTEQDSKDSTYSLSSTLTLSKADYEKHKVYACEVTHQGLSSPVTKSFNRGEC
B2 came in with an EC50 in experiment [3] of 25.8 pM.

B3: PD-1m-aEGFRL (bispecific antibody)
heavy: QVQLQESGPGLVKPSETLSLTCTVSGGSVSSGDYYWTWIRQSPGKGLEWIGHIYYSGNTNYNPSLKSRLTISIDTSKTQFSLKLSSVTAADTAIYYCVRDRVTGAFDIWGQGTMVTVSSASTKGPSVFPLAPSSKSTSGGTAALGCLVKDYFPEPVTVSWNSGALTSGVHTFPAVLQSSGLYSLSSVVTVPSSSLGTQTYICNVNHKPSNTKVDKKVEPKSCDKTHTCPPCPAPPVAGPSVFLFPPKPKDTLMISRTPEVTCVVVDVSHEDPEVKFNWYVDGVEVHNAKTKPREEQYNSTYRVVSVLTVLHQDWLNGKEYKCKVSNKGLPSSIEKTISKAKGQPREPQVYTLPPSRDELTKNQVSLTCLVKGFYPSDIAVEWESNGQPENNYKTTPPVLDSDGSFFLYSKLTVDKSRWQQGNVFSCSVMHEALHNHYTQKSLSLSPGK
light: not shown
As to B3, it took 39.4 pM to reach a half-maximal effect in experiment [4] (EC50).

B4: PD-1-aEGFRL (bispecific antibody)
heavy: QVQLQESGPGLVKPSETLSLTCTVSGGSVSSGDYYWTWIRQSPGKGLEWIGHIYYSGNTNYNPSLKSRLTISIDTSKTQFSLKLSSVTAADTAIYYCVRDRVTGAFDIWGQGTMVTVSSASTKGPSVFPLAPSSKSTSGGTAALGCLVKDYFPEPVTVSWNSGALTSGVHTFPAVLQSSGLYSLSSVVTVPSSSLGTQTYICNVNHKPSNTKVDKKVEPKSCDKTHTCPPCPAPPVAGPSVFLFPPKPKDTLMISRTPEVTCVVVDVSHEDPEVKFNWYVDGVEVHNAKTKPREEQYNSTYRVVSVLTVLHQDWLNGKEYKCKVSNKGLPSSIEKTISKAKGQPREPQVYTLPPSRDELTKNQVSLTCLVKGFYPSDIAVEWESNGQPENNYKTTPPVLDSDGSFFLYSKLTVDKSRWQQGNVFSCSVMHEALHNHYTQKSLSLSPGK
light: not shown
B4: in experiment [4], the EC50 is 1540 pM.

What is called EC50 is the midpoint of the concentration-response curve. Read a low EC50 as a more potent agent.
